Six variants from IntAct's records for PubMed 20181956 can be followed below.

B1: Trinucleotide repeat-containing gene 6C protein (Homo sapiens), Q9HCJ0 (parent)
chain: MEEKKKKKQEEKKKKEGAQKKAADQKTKVPEPTKTCSSQPQPAGTSTSTSTSTISSSNNGKRASASGQQPAASRYLPREVPPRFRQQEQKQLLKRGQPLPTGTLTSVSPTQGAGPAGVSPPPLPGAGTQHHPSKLQPDLSHSGLADHYENSHWGQQPTYRSEANCSWDKVIIDRTDKEAWPSITGTETESASECTTDTDSASNCGSENSSMATGSAQGNFTGHTKKTNGNNGTNGALVQSPSNQSALGAGGANSNGSAARVWGVATGSSSGLAHCSVSGGDGKMDTMIGDGRSQNCWGASNSNAGINLNLNPNANPAAWPVLGHEGTVATGNPSSICSPVSAIGQNMGNQNGNPTGTLGAWGNLLPQESTEPQTSTSQNVSFSAQPQNLNTDGPNNTNPMNSSPNPINAMQTNGLPNWGMAVGMGAIIPPHLQGLPGANGSSVSQVSGGSAEGISNSVWGLSPGNPATGNSNSGFSQGNGDTVNSALSAKQNGSSSAVQKEGSGGNAWDSGPPAGPGILAWGRGSGNNGVGNIHSGAWGHPSRSTSNGVNGEWGKPPNQHSNSDINGKGSTGWESPSVTSQNPTVQPGGEHMNSWAKAASSGTTASEGSSDGSGNHNEGSTGREGTGEGRRRDKGIIDQGHIQLPRNDLDPRVLSNTGWGQTPVKQNTAWEFEESPRSERKNDNGTEAWGCAATQASNSGGKNDGSIMNSTNTSSVSGWVNAPPAAVPANTGWGDSNNKAPSGPGVWGDSISSTAVSTAAAAKSGHAWSGAANQEDKSPTWGEPPKPKSQHWGDGQRSNPAWSAGGGDWADSSSVLGHLGDGKKNGSGWDADSNRSGSGWNDTTRSGNSGWGNSTNTKANPGTNWGETLKPGPQQNWASKPQDNNVSNWGGAASVKQTGTGWIGGPVPVKQKDSSEATGWEEPSPPSIRRKMEIDDGTSAWGDPSNYNNKTVNMWDRNNPVIQSSTTTNTTTTTTTTTSNTTHRVETPPPHQAGTQLNRSPLLGPVSSGWGEMPNVHSKTENSWGEPSSPSTLVDNGTAAWGKPPSSGSGWGDHPAEPPVAFGRAGAPVAASALCKPASKSMQEGWGSGGDEMNLSTSQWEDEEGDVWNNAASQESTSSCSSWGNAPKKGLQKGMKTSGKQDEAWIMSRLIKQLTDMGFPREPAEEALKSNNMNLDQAMSALLEKKVDVDKRGLGVTDHNGMAAKPLGCRPPISKESSVDRPTFLDKDGGLVEEPTPSPFLPSPSLKLPLSHSALPSQALGGIASGLGMQNLNSSRQIPSGNLGMFGNSGAAQARTMQQPPQPPVQPLNSSQPSLRAQVPQFLSPQVQAQLLQFAAKNIGLNPALLTSPINPQHMTMLNQLYQLQLAYQRLQIQQQMLQAQRNVSGSMRQQEQQVARTITNLQQQIQQHQRQLAQALLVKQPPPPPPPPHLSLHPSAGKSAMDSFPSHPQTPGLPDLQTKEQQSSPNTFAPYPLAGLNPNMNVNSMDMTGGLSVKDPSQSQSRLPQWTHPNSMDNLPSAASPLEQNPSKHGAIPGGLSIGPPGKSSIDDSYGRYDLIQNSESPASPPVAVPHSWSRAKSDSDKISNGSSINWPPEFHPGVPWKGLQNIDPENDPDVTPGSVPTGPTINTTIQDVNRYLLKSGGSSPPSSQNATLPSSSAWPLSASGYSSSFSSIASAPSVAGKLSDIKSTWSSGPTSHTQASLSHELWKVPRNSTAPTRPPPGLTNPKPSSTWGASPLGWTSSYSSGSAWSTDTSGRTSSWLVLRNLTPQIDGSTLRTLCLQHGPLITFHLNLTQGNAVVRYSSKEEAAKAQKSLHMCVLGNTTILAEFAGEEEVNRFLAQGQALPPTSSWQSSSASSQPRLSAAGSSHGLVRSDAGHWNAPCLGGKGSSELLWGGVPQYSSSLWGPPSADDSRVIGSPTPLTTLLPGDLLSGESL

One test covers variants of B1. The note with it: with pabp1_human PABPC1, P11940.
pabp1_human PABPC1, P11940, sequence (P11940 whole entry): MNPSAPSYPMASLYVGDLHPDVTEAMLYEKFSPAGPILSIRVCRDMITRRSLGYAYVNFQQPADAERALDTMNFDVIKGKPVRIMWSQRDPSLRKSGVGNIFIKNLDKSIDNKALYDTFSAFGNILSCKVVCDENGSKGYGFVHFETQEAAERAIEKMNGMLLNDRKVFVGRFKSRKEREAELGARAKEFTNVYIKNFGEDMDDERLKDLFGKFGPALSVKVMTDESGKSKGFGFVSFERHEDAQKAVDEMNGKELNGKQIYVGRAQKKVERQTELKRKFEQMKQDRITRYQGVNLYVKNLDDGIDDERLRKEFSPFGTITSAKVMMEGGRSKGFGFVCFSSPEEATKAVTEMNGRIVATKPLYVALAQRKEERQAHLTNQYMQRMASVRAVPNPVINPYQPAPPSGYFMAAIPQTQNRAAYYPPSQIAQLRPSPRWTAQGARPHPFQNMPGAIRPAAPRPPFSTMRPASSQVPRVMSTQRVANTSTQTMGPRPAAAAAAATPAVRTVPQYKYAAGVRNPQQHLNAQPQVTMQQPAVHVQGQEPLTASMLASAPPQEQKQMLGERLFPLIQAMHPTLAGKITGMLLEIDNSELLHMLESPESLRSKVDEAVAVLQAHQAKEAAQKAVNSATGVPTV
As to W1602A, the “effect of a mutation on the interaction” value is on record as “decreasing interaction”.

In the case of G1599A, the “effect of a mutation on the interaction” value is reported as “decreasing interaction”.

The variants in another test derive from B1. The note with it: with pabp1_human PABPC1, P11940. The source holds these as a separate data set.
As for W1592A, the “effect of a mutation on the interaction” value was “decreasing interaction”. For the variant P1593A, the “effect of a mutation on the interaction” value is recorded as “decreasing interaction”. Still for that read-out and setting: as for F1596A, the entry is “disrupting interaction”. For the variant P1601A, the “effect of a mutation on the interaction” value was “decreasing interaction”.
